Measurements as given in the supplement of paper PMC12764529.
± gives the half width of the 95% confidence interval.

What was measured:
[1] = folding stability dG unfold from chymotrypsin proteolysis; higher = more stable
Outline: (§1)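 Designed mini-proteins with no cysteine and under 80 residues were kept only if AlphaFold2 dimer inter-PAE was above 15. In a PA-tagged cDNA display construct, they were digested with trypsin and chymotrypsin and then sequenced. K50 was inferred by Bayesian fitting of counts, and unfolding free energy was derived per protease or combined against a sequence-predicted unfolded-state K50 and a shared folded-state K50.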

[2] = folding stability dG unfold (combined trypsin and chymotrypsin); higher = more stable
Outline: as §1

[3] = folding stability dG unfold from trypsin proteolysis; higher = more stable
Outline: as §1

Sequence: SAGGSAGGSAIKEIVKRIEKLFGVDVEPEQEEREVNGGRYPTLPVTVKVPPNANSPALKEASAGGSAGGSAG [r3_427_TrROS]
- folding stability dG unfold [1]: 0.636 ± 0.093 kcal/mol
- folding stability dG unfold [2]: 0.021 ± 0.24 kcal/mol
- folding stability dG unfold [3]: -0.555 ± 0.4 kcal/mol

Sequence: SAGGSAGGSAIKPGEKIKILVLVKDENGKEYLVKMEIEKLPDGKIKIKKVEIMSLEELKKLSAGGSAGGSAG [r3_212_TrROS_Hall]
- folding stability dG unfold [1]: 2.38 ± 0.029 kcal/mol
- folding stability dG unfold [2]: 2.2 ± 0.13 kcal/mol
- folding stability dG unfold [3]: 1.84 ± 0.043 kcal/mol

Sequence: SAGGSAGGSAIPKAPVTVTVTTADGRPALATVEYYPDGVLVTVHYGDKTVTAWVAPADISASAGGSAGGSAG [r3_373_TrMRF]
- folding stability dG unfold [1]: 2.19 ± 0.11 kcal/mol
- folding stability dG unfold [2]: 1.54 ± 0.17 kcal/mol
- folding stability dG unfold [3]: 0.864 ± 0.053 kcal/mol

Sequence: SAGGSAGGSAISIMIDDPDDLELAEEIANNIRDHFPDFPIKVEVERMPGNPDYYMIRVEWESAGGSAGGSAG [r3_131_TrROS]
- folding stability dG unfold [1]: 1.52 ± 0.042 kcal/mol
- folding stability dG unfold [2]: 1.66 ± 0.096 kcal/mol
- folding stability dG unfold [3]: 1.79 ± 0.073 kcal/mol

Sequence: SAGGSAGGSAKAVEFYFPAEEYTVEEIIDRLVKELGVPKENIKLAKVEPLENGELKVIVEIPSAGGSAGGSA [r18_118_TrMRF]
- folding stability dG unfold [1]: 3.21 ± 0.12 kcal/mol
- folding stability dG unfold [2]: 3.1 ± 0.092 kcal/mol
- folding stability dG unfold [3]: 2.82 ± 0.11 kcal/mol

Sequence: SAGGSAGGSAKEIDFKFRSPGNGEEFPFRVEIDEFDPDDGPLLIKVEMPNGKPHTFPADDILSAGGSAGGSA [r18_334_TrROS]
- folding stability dG unfold [1]: 0.76 ± 0.15 kcal/mol
- folding stability dG unfold [2]: 0.503 ± 0.11 kcal/mol
- folding stability dG unfold [3]: 0.101 ± 0.086 kcal/mol

Sequence: SAGGSAGGSAKEILIVMTPEEAEELKKELLEKLKELAKKLKIKEIKIKVYLVKYDKNGKKVSAGGSAGGSAG [r3_89_TrROS_Hall]
- folding stability dG unfold [1]: 2.66 ± 0.091 kcal/mol
- folding stability dG unfold [2]: 2.26 ± 0.28 kcal/mol
- folding stability dG unfold [3]: 1.9 ± 0.12 kcal/mol

Sequence: SAGGSAGGSAKELLKNIEKVEIIKNKKTNKYTIRIKNKNGKVYEFEFKSLEEALKKAGIKPSAGGSAGGSAG [r3_36_TrROS_Hall]
- folding stability dG unfold [1]: 3.19 ± 0.038 kcal/mol
- folding stability dG unfold [2]: 2.93 ± 0.073 kcal/mol
- folding stability dG unfold [3]: 2.24 ± 0.041 kcal/mol

Sequence: SAGGSAGGSAKETLRMELELEIDGVVVRVEAEVELDPETNELHIRVKVEVEPLPPPLPPGLESAGGSAGGSA [r18_16_TrROS_Hall]
- folding stability dG unfold [1]: 2.53 ± 0.34 kcal/mol
- folding stability dG unfold [2]: 2.32 ± 0.33 kcal/mol
- folding stability dG unfold [3]: 1.2 ± 0.2 kcal/mol

Sequence: SAGGSAGGSAKIKIKVKPGEKVRIYNKKTKKEIAEVEVVEVKEGKIVVKLKNGKLYEIEIEPSAGGSAGGSA [r18_363_TrROS_Hall]
- folding stability dG unfold [1]: 2.36 ± 0.06 kcal/mol
- folding stability dG unfold [2]: 2.18 ± 0.052 kcal/mol
- folding stability dG unfold [3]: 1.67 ± 0.033 kcal/mol

Sequence: SAGGSAGGSAKIKPGEKVEITLKDGSKVIIEKKEDGKYLARIIDKKTNEVKTVPLDKIKLVSAGGSAGGSAG [r3_213_TrROS_Hall]
- folding stability dG unfold [1]: 1.08 ± 0.046 kcal/mol
- folding stability dG unfold [2]: 1.13 ± 0.14 kcal/mol
- folding stability dG unfold [3]: 0.99 ± 0.057 kcal/mol

Sequence: SAGGSAGGSAKIKVLIKITNKDGKKKEILLEAETEEEALEAAKKLAEKEINGKKYKIEIKPLSAGGSAGGSA [r18_457_TrROS_Hall]
- folding stability dG unfold [1]: 2.08 ± 0.044 kcal/mol
- folding stability dG unfold [2]: 1.96 ± 0.11 kcal/mol
- folding stability dG unfold [3]: 1.83 ± 0.074 kcal/mol

Sequence: SAGGSAGGSAKIRVGGEEIELPPGKPVMFRFPENGYMIKITIKPDPKENKWKIDELKVYPMDSAGGSAGGSA [r18_222_TrROS]
- folding stability dG unfold [1]: 1.83 ± 0.16 kcal/mol
- folding stability dG unfold [2]: 1.46 ± 0.19 kcal/mol
- folding stability dG unfold [3]: 1.13 ± 0.089 kcal/mol

Sequence: SAGGSAGGSAKKITIYLPNAEVVEVEYDEETDVITIRVKNEDGSEYEFRFYPDGSVEIRPVSAGGSAGGSAG [r3_348_TrROS_Hall]
- folding stability dG unfold [1]: 3.65 ± 0.15 kcal/mol
- folding stability dG unfold [2]: 3.4 ± 0.14 kcal/mol
- folding stability dG unfold [3]: 2.95 ± 0.16 kcal/mol

Sequence: SAGGSAGGSAKKKVIVIELPEDMTLEEALALAKALAPPGAEIVIRRDGKLYVIKIEDPEKLSAGGSAGGSAG [r3_50_TrROS_Hall]
- folding stability dG unfold [1]: 2.82 ± 0.084 kcal/mol
- folding stability dG unfold [2]: 2.55 ± 0.17 kcal/mol
- folding stability dG unfold [3]: 2.24 ± 0.11 kcal/mol

Sequence: SAGGSAGGSAKKKVKIKLEFDKETNTLRIEVEDEDTGEKTEIEITIKLEPPPPPPLPEELKKSAGGSAGGSA [r18_361_TrROS_Hall]
- folding stability dG unfold [1]: 1.42 ± 0.22 kcal/mol
- folding stability dG unfold [2]: 1.73 ± 0.61 kcal/mol
- folding stability dG unfold [3]: 1.72 ± 0.18 kcal/mol

Sequence: SAGGSAGGSAKKKVKVVEIKITYDKEKNEYYIEAKVYNENTGETKTVRIKVKLKPGQKLKFSAGGSAGGSAG [r3_1_TrROS_Hall]
- folding stability dG unfold [1]: 1.71 ± 0.066 kcal/mol
- folding stability dG unfold [2]: 1.72 ± 0.087 kcal/mol
- folding stability dG unfold [3]: 1.65 ± 0.041 kcal/mol

Sequence: SAGGSAGGSAKKTLTVTVKAEPSEGAPAIAKEVAEKLGLPDAKVLSISYDPETGELTITFEYSAGGSAGGSA [r18_481_TrMRF]
- folding stability dG unfold [1]: 4.56 ± 0.097 kcal/mol
- folding stability dG unfold [2]: 4.61 ± 0.14 kcal/mol
- folding stability dG unfold [3]: 4.21 ± 0.2 kcal/mol

Sequence: SAGGSAGGSAKPDKPIKVKVTLYNPATGEKTVVEVEVPPHVKPEEVAEALRKEFGAARVEVESAGGSAGGSA [r18_58_TrMRF]
- folding stability dG unfold [1]: 3.112 ± 0.03 kcal/mol
- folding stability dG unfold [2]: 3.08 ± 0.057 kcal/mol
- folding stability dG unfold [3]: 3.05 ± 0.086 kcal/mol

Sequence: SAGGSAGGSAKPEAVAPAVFTLDGVPYLVPVRVLEAGLSPDQKLLVLGTLPNGEPFLAVFDASAGGSAGGSA [r18_54_TrMRF]
- folding stability dG unfold [1]: 1.57 ± 0.082 kcal/mol
- folding stability dG unfold [2]: 1.27 ± 0.12 kcal/mol
- folding stability dG unfold [3]: 0.744 ± 0.058 kcal/mol

Sequence: SAGGSAGGSAKPEKPEKVELKPKVKFVKVKVRLRFSFTLENGEKVEVELEATFLFVDGKLVSAGGSAGGSAG [r3_380_TrROS_Hall]
- folding stability dG unfold [1]: 5.31 ± 0.13 kcal/mol
- folding stability dG unfold [2]: 5.11 ± 0.2 kcal/mol
- folding stability dG unfold [3]: 3.97 ± 0.22 kcal/mol
